For assay [1], the target named is LnaB (recombinant, ITC and AUC) (L. pneumophila). The experiment in a line: ITC. On the technique in general: In ITC the heat of successive injections is recorded.
In assay [2] the target is ADP-ribosylated ubiquitin (ADPR-Ub) (UniProt P0CG48). The experiment in a line: ITC.

Broadly, the stoichiometry N is a count of units in the complex or per binding partner. “Actin (Sangon Biotech, A001041) (from UniProt P60709 1-375) (natural protein)”: the stoichiometry N in assay [1] is 0.84.

By Kd is commonly meant a measure of binding affinity in units of concentration. Read a high Kd as weaker binding. In turn, MavL_N322A yielded a Kd in assay [2] of 5.96 µM.

These data come from paper PMC11142304.
